We go through three molecules from US20250296984A1, “THERAPEUTIC AND DIAGNOSTIC AGENTS AND USES THEREOF” (priority 2022, published 2025).

The test system of experiment [1] is control CHO cells (US28 negative). The experiment is described as follows: FACS binding to US28 negative control CHO cells. The settings on record: Table 7A; (1:5) (200 μg/ml); secondary antibody background removed. Also on record: species or system Chinese hamster. How it is done:
(§1) Flowcytometry was used to analyze cell surface binding by the US28 antibodies. Upon cell harvest, adherent non-infected and US28 overexpressing or HCMV infected cells were washed three times with cell staining buffer (phosphate-buffered saline (PBS (Amresco, Cleveland, 44139, USA) added 0.5% BSA and 0.05% Sodium Azide (NaN3)). The cells were trypisinized and then resuspended in DMEM with 10% FBS to inhibit the action of trypsin. The cells were then pelleted at 400×g for 10 minutes and washed three times in cell staining buffer. Cell viability and cell concentration were measured by tryphan blue viability assay and a cell counter (Countess, Invitrogen, Carlsbad, CA 92008, USA). The cell suspension was adjusted to 1×10^6 cells/mL with ice-cold cell staining buffer. The cells were blocked in 1 ml 10% FBS or 1% BSA in PBS per 1×10^6 cells, vortexed briefly, and incubated for 10-30 minutes to eliminate non-specific staining. The cells were then stained with the respective antibodies and appropriate negative controls.
(§2) In both cases (ECD1 and ECD3), the antibodies were added to the cells, vortexed and incubated on ice for 15 to 30 minutes up to overnight and washed twice with cell staining buffer to remove any unbound antibodies. In addition, the CMV Immediate Early Antigen (IE) Alexa488 Ab, MAB810X, 1:50 was included to verify HCMV infected cells in one of the experiments. Because it binds to an intracellular, HCMV encoded protein, it was added after permeabilizing the cells in 70% ethanol for 30 min on ice.
(§3) 1:500-1:5000 in cell staining buffer of the appropriate fluorescent-conjugated appropriate secondary antibodies were added and incubated on ice for 15-20 min in the dark. The cells were washed three times to remove any unbound antibodies. The cells were then fixed with 0.5% paraformaldehyde (PFA) for 30 min on ice and resuspended in 200-500 μL cell staining buffer for final flow cytometric analysis using an Accuri C6 flow cytometry system (BD Biosciences, San Jose, CA 95131, USA). Data analyses were performed using FlowJo software v8.8 (Treestar Inc. Ashland, OR 97520, USA).
(§4) Background levels were determined using the respective secondary antibodies (anti-mFc-FITC for the subclones, or anti-myc-PE for the VUN100 molecules) with CHO cells and CHO-US28 cells. Given that US28 is expressed on the cell surface, the cells were non-permeabilised for these experiments.
Background: In flow cytometry, cells or beads pass a laser one at a time.

In experiment [2] the target is T1, Peptide-2 […] (SEQ ID NO: 7), US28 ECD3 4D variant (Human cytomegalovirus, UniProt P69332).
T1 construct: made in house; host or cells: chemical synthesis
The experiment is described as follows: ELISA, binding to Bio-Peptide-2. The note with it: 4D variant peptide. Also on record: species or system HCMV. The method, then: Microtiter plate wells were coated with 100 μl of the solution containing: (i) Bio-Peptide-N; or (ii) Bio-Peptide-1 and Bio-Peptide-2; at a concentration of between 1-10 μg/ml in coating buffer, consisting of Na2CO3, 1.5 g and NaHCO3, 2.93 g in 1 L of distilled water in pH 9.6, and then incubated for 1-2 hours at room temperature. The plate was washed 3 times in wash buffer consisting of PBS containing 0.05% v/v Tween-20 and blotted with paper towels thereafter. 150 μl of blocking solution containing Phosphate buffered saline (PBS) containing 1% w/v BSA, was added to each well and the plate was incubated for 2 hours at 37° C. The wells were washed 4 times in wash buffer and blotted on paper towels after the last wash. 100 μl of antibody dilution was added to each well and the plate was incubated for 1 hour at 37° C. and thereafter washed 3 times in wash buffer. 100 μl enzyme-conjugated secondary antibody (appropriately diluted in wash buffer) was added to each well and the plate was incubated for 1 hour at 37° C. The wells were then again washed 3 times in wash buffer and blotted with paper towels after the last wash. […] The absorbance values were read immediately at the appropriate wavelength and the data analyzed by Cmax Plus, Molecular Devices, San Jose, CA 95134, USA, […]
Background: ELISA stands for enzyme-linked immunosorbent assay.

Experiment [3] concerns the target T2, HCMV US28 (strain DB) on CHO-US28-A1 cells (Human cytomegalovirus, UniProt P69332, D170N/D19A).
T2 construct: expressed in transfected cells; host or cells: CHO-K1 (vector pCDH-EF1a-MCS)
The experiment is described as follows: FACS surface binding to CHO-US28-A1 cells. The note with it: CHO-US28-A1 cells compared with US28 negative control CHO cells. The method, then:
Plasmid construction was performed to create a US28-overexpressing cell line. The US28 sequence, identical to HCMV DB strain (Acc. Number: KT959235; SEQ ID No. 5 of this application), fused to a 6His tag at its C terminal part, was inserted into the pCDH-EF1a-MCS vector (Creative Biolabs, Shirley, NY 11967, USA). The plasmid construct was transfected to CHO-K1 cell line. The cells were collected 48 hours after transfection. The cell line was named as CHO-US28-A1-6His and its protein sequence (SEQ ID NO: 47) is the following:
as §1
The primary antibodies used were I) 13-5G6-1D3 (50 μg/ml) as a positive control; II) Monovalent and Bivalent VUN100 ScFvs 1:1 (50 μg/ml); III) test antibodies for the specified subclones (1:5).
The primary antibodies used were I) 13-5G6-1D3 1:50 to 50 μg/ml; and II) Commercial US28 polyclonal antibody (50 μg/ml), III) Monovalent and Bivalent VUN100 ScFvs (50 μg/ml) and for certain experiments, the appropriate isotype controls were included.
as §2, §3, §4

Marks after values point to notes of the source that are not given here.

B1: 13-1C10-1C10: mouse hybridoma subclone antibody against US28 ECD3 Peptide-1 and -2; sequenced (antibody)
heavy: EVKLVESGGVLVKPGGSLKFSCAASGFTFSSHALSWVRQTPEKRLEWVASISSRGRTYYPDSVKGRFTVSRDNARNILYLQVSSLRSEDTAMYYCTRGGTHYSYGNGFDFWGQGTTLTVSSAKTTPPSVYPLAPGSAAQTNSMVTLGCLVKGYFPEPVTVTWNSGSLSSGVHTFPAVLQSDLYTLSSSVTVPSSTWPSETVTCNVAHPASSTKVDKKIVPRDCGCKPCICTVPEVSSVFIFPPKPKDVLTITLTPKVTCVVVDISKDDPEVQFSWFVDDVEVHTAQTQPREEQFNSTFRSVSELPIMHQDWLNGKEFKCRVNSAAFPAPIEKTISKTKGRPKAPQVYTIPPPKEQMAKDKVSLTCMITDFFPEDITVEWQWNGQPAENYKNTQPIMDTDGSYFIYSKLNVQKSNWEAGNTFTCSVLHEGLHNHHTEKSLSHSPGK
light: QIVLTQSPAIMSASPGEKVTMTCSVSSSVSYMHWYQQKSGTSPKRWIYDTSKLASGVPARFSGSGSGTSYSLTISTMEAEDAATYYCQQWSNNPPITFGAGTKLELKRADAAPTVSIFPPSSEQLTSGGASVVCFLNNFYPKDINVKWKIDGSERQNGVLNSWTDQDSKDSTYSMSSTLTLTKDEYERHNSYTCEATHKTSTSPIVKSFNRNEC
For B1, the “Percentage of binding to CHO cells” value in experiment [1] is recorded as 0.62%. The “Absorbance values, Peptide 2” value in experiment [2] was 3.029.

B2: 14-1H3-1A10: mouse hybridoma subclone antibody against US28 ECD3 Peptide-1 and -2; sequenced (antibody)
heavy: EVKLVESGGVLVKPGGSLKFSCAASGFTLSSHALSWVRQTPEKRLEWVASISSRGRTYYPDSVKGRFTVSRDNARNILYLQVSSLRSEDTAMYYCTRGGTHYSYGNGFDFWGQGTTLTVSSAKTTPPSVYPLAPGSAAQTNSMVTLGCLVKGYFPEPVTVTWNSGSLSSGVHTFPAVLQSDLYTLSSSVTVPSSTWPSETVTCNVAHPASSTKVDKKIVPRDCGCKPCICTVPEVSSVFIFPPKPKDVLTITLTPKVTCVVVDISKDDPEVQFSWFVDDVEVHTAQTQPREEQFNSTFRSVSELPIMHQDWLNGKEFKCRVNSAAFPAPIEKTISKTKGRPKAPQVYTIPPPKEQMAKDKVSLTCMITDFFPEDITVEWQWNGQPAENYKNTQPIMDTDGSYFIYSKLNVQKSNWEAGNTFTCSVLHEGLHNHHTEKSLSHSPGK
light: QIVLTQSPAIMSASPGEKVTMTCSVSSSVSYMHWYQQKSGTSPKRWIYDTSKLASGVPARFSGSGSGTSYSLTISTMEAEDAATYYCQQWSNNPPITFGAGTKLELKRADAAPTVSIFPPSSEQLTSGGASVVCFLNNFYPKDINVKWKIDGSERQNGVLNSWTDQDSKDSTYSMSSTLTLTKDEYERHNSYTCEATHKTSTSPIVKSFNRNEC
B2: the “Percentage of binding to CHO cells” value in experiment [1] is listed as 0.58%. In addition, the “Absorbance values, Peptide 2” value in experiment [2] was 2.842.

B3: 13-5G6-1D3 clone: antibody from hybridoma clone US28-13-5G6-1D3 (antibody)
heavy: EVKLVESGGGLVQPGGSLRLACATSGFTFTDYYMSWVRQPPGKALEWLGFIRSKANGYTTEYSASVKGRFTISRDNSQSILYLQMNTLRSEDSATYYCARDERRTAWLAYWGQGTLVTVSAAKTTPPSVYPLAPGSAAQTNSMVTLGCLVKGYFPEPVTVTWNSGSLSSGVHTFPAVLQSDLYTLSSSVTVPSSTWPSETVTCNVAHPASSTKVDKKIVPRDCGCKPCICTVPEVSSVFIFPPKPKDVLTITLTPKVTCVVVDISKDDPEVQFSWFVDDVEVHTAQTQPREEQFNSTFRSVSELPIMHQDWLNGKEFKCRVNSAAFPAPIEKTISKTKGRPKAPQVYTIPPPKEQMAKDKVSLTCMITDFFPEDITVEWQWNGQPAENYKNTQPIMDTDGSYFIYSKLNVQKSNWEAGNTFTCSVLHEGLHNHHTEKSLSHSPGK
light: DVLMTQTPLSLPVSLGDQASISCRSSQSIVHSNGNTYLDWYLQKPGQSPKLLIYKVSNRFSGVPDRFSGSGSGTDFTLKISRVEAEDLGVYYCFQGSHVPTWTFGGGTKLEIKRADAAPTVSIFPPSSEQLTSGGASVVCFLNNFYPKDINVKWKIDGSERQNGVLNSWTDQDSKDSTYSMSSTLTLTKDEYERHNSYTCEATHKTSTSPIVKSFNRNEC
As to B3, the “Binding Specificity (ratio of surface binding)” value in experiment [3] is on record as 15.2*.
